This data set deals with T1, rVapB47 (rRv3407) (Mycobacterium bovis BCG Moreau), ORF:ad596061.
T1 sequence: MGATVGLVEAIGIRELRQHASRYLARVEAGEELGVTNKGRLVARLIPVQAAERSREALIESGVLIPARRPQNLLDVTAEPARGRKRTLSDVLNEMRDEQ
Kind of data set: EMSA. On the technique in general: In EMSA bound probe runs differently from free probe, usually more slowly.

“GGTGCTACATAATTGCGTTGCGCTTACTGGTTGATCAGCCAGCGATCTCCATCGGCGCCCCGCTGATCACCCGGCTAGCCTGCCCGTACACGTCGA (double strand) [07promF-R1 (96 bp)]”: the binding entry was “no binding”. In the case of “TCGACGTGTACGGGCAGGCTAGCCGGGTGATCAGCGGGGCGCCGATGGAGATCGCTGGCTGATCAACCAGTAAGCGCAACGCAATTATGTAGCACCATGCGTGCTACCGTTGGGCTTGTGGA (double strand) [07promF-R2 (122 bp)]”, the binding entry was “binds”.

For the origin of these results see publication PMC10453824.
